Data reported in patent US6762284 (ONYX PHARMACEUTICALS, dated 2004).
Read-outs that look alike come from different tables or passages of the source.

Assays:
Experiment in all cases: yeast two-hybrid
[1] = molecular target: T1, p85 C-terminal SH2 domain (AA 620-727) (human, UniProt P04386 1-147; P27986 620-724)
[2] = molecular target: T2, p85 SH3 domain (AA 6-117) (human, UniProt P04386 1-147; P27986 6-117)
[3] = molecular target: T3, p85 Bcr homology domain (AA 118-340) (human, UniProt P04386 1-147; P27986 118-340)
[4] = molecular target: T4, p85 full length (AA 6-727) (human, UniProt P04386 1-147; P27986 6-724)
T4 construct: also called GAL4-p85

[5] = molecular target: p85 SH2 domains and inter SH2 domain (AA 263-727) (human, UniProt P04386 1-147; P27986 263-724)
[6] = molecular target: T5, p85 N-terminal SH2 and inter SH2 domain (AA 263-620) (human, UniProt P04386 1-147; P27986 263-620)
T5 construct: Two-hybrid bait fusion

[7] = molecular target: T1, p85 C-terminal SH2 domain (AA 620-727); remark: listed apart in the source
[8] = molecular target: T2, p85 SH3 domain (AA 6-117); remark: listed apart in the source
[9] = molecular target: T3, p85 Bcr homology domain (AA 118-340); remark: listed apart in the source

Measured: binding result

B1: PIKAP AA 277-360 (other, not shown: large carriers)
chain: EDSGDAEAHAFKSPSKENKKKDKDMLEDKFKSNNLEREQEQLDRIVKESGGKLTRRLVNSQCEFERRKPDGTTTLGLLHPVDPI
not listed: [7] | [8] | [9]
no binding: all other assays above

B2: PIKAP AA 277-589 (other, not shown: large carriers)
chain: EDSGDAEAHAFKSPSKENKKKDKDMLEDKFKSNNLEREQEQLDRIVKESGGKLTRRLVNSQCEFERRKPDGTTTLGLLHPVDPIVGEPGYCLVRLGMTTGRLQSGVNTLQGFKEDKRNKVTPVLYLNYGPYSSYAPHYDSTFANISKDDSDLIYSTYGEDSDLPSDFSIHEFLATCQDYPYVMADSLLDVLTKGGHSRTLQEMEMSLPEDEGHTRTLDTGKEMEQITEVEPPGRLDSSTQDRLIALKAVTNFGVPVEVFDSEEAEIFQKKLDETTRLLRELQEAQNERLSTRPPGNMICLLGPSSEKCILLNK
notes: Two-hybrid prey fusion expressed in yeast YGH1; also called original isolate from two hybrid screening; PI3K Associated Protein AA 277-589
no binding: [7] | [8] | [9]

B3: PIKAP AA 361-516 (other, not shown: large carriers)
chain: VGEPGYCLVRLGMTTGRLQSGVNTLQGFKEDKRNKVTPVLYLNYGPYSSYAPHYDSTFANISKDDSDLIYSTYGEDSDLPSDFSIHEFLATCQDYPYVMADSLLDVLTKGGHSRTLQEMEMSLPEDEGHTRTLDTGKEMEQITEVEPPGRLDSSTQ
not listed: [7] | [8] | [9]
no binding: all other assays above

B4: PIKAP AA 517-589 (other, not shown: large carriers)
chain: DRLIALKAVTNFGVPVEVFDSEEAEIFQKKLDETTRLLRELQEAQNERLSTRPPGNMICLLGPSSEKCILLNK
notes: The text speaks of the last 74 amino acids, while 517-589 counts 73 residues; also called last 74 amino acids of the c-terminal end of PIKAP
no binding: [1] | [2] | [3]
